The values that follow come from paper doi:10.1101/2023.01.06.522972 (2023).

The test has as its target Leishmania major actin (Leishmania major, UniProt P45520 2-376). The test is described as follows: ITC; ATP-actin. (Isothermal titration calorimetry measures the heat released or taken up as one component is titrated into another.)

Leishmania major actin, sequence (P45520 2-376): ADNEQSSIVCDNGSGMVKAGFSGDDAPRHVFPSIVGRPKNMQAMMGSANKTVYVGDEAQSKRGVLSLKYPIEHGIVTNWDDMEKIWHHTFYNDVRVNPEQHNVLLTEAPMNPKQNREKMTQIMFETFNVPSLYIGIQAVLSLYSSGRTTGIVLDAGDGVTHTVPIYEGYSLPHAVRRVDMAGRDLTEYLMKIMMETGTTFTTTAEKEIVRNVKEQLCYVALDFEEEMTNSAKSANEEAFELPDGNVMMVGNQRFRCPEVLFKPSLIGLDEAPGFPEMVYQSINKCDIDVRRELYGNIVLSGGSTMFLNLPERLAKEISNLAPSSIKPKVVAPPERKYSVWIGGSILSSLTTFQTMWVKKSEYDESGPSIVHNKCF

B1: Leishmania major profilin, wild type (natural protein)
chain: SWQAYVDDSLIGSGNMHSAAIIGAADGSYWAYGGSYVPQPEEVQHIQKCLSDFSFVQSSGVNIYGVKFFGLQCGTDGDCKYIFFKKGAAGGCIYTTKQAFIVAVYGNPGDTSSLQQDLEKNTAHAVTVNPADCNTTVKRIADYLIKLGY
As for B1, the Kd was found to be 71.8 nM.

As usually defined, the Kd is a measure of binding affinity in units of concentration.
